Test results from patent US20200223906A1.

Assays:
[1] = molecular target: RSV F protein of subtype A (strain A2) on recombinant mKate-RSV (respiratory syncytial virus subtype A (strain A2)) (UniProt P03420); assay: cell-based or functional assay
[2] = molecular target: human metapneumovirus (HMPV) F protein on GFP-expressing hMPV recombinant virus (NL/1/00, A1 sublineage) (human metapneumovirus); assay: cell-based or functional assay

MPE8 (antibody)
RSV-A2 IC50 [1]: 0.04 mg/L | HMPV-A1 IC50 [2]: 0.07 mg/L
